Reference: publication PMC11190312

What was measured:
[1] = target: SARS-CoV-2 N protein expressed in bacteria (N-Bact) (SARS-CoV-2) (UniProt P0DTC9); test: SPR; single cycle kinetics, […]; global fit to 1:1 Langmuir model; […]
[2] = target: SARS-CoV-2 N protein secreted by mammalian Expi293 cells (N-Expi) (SARS-CoV-2) (UniProt P0DTC9); test: as above

“Recombinant human MASP-2 S618A, full-length, stabilized in proenzyme form” was tested. Which Kd [1] did it give?
Its Kd is 12.3 nM.

What about the koff [1] of the same substance?
Its koff is 0.00015 s⁻¹.

And the kon [1]?
Its kon is 13900 M⁻¹ s⁻¹.

What about the Kd [2] of the same substance?
Its Kd is 13.7 nM.

And the koff [2]?
Its koff is 0.000172 s⁻¹.

What about the kon [2] of the same substance?
Its kon is 14400 M⁻¹ s⁻¹.
